# Experimental data taken from publication PMC9784564 (2022).
# Target: CoV-2-RBD of the SARS-CoV-2 Inhibitor Screening Kit (SARS-CoV-2, UniProt P0DTC2 319-541)
# Test: ELISA
binder,measurement,value
"CB79 (antibody, V domains shown) VH: QVHLVQSGAEVKKPGASVKVSCKASGYTFTDYYMHWVRQAPGQGLEWMGRINPNSGGTNYPETLQGRVTMTTDTSTSTAYLEVRSLTPDDTAVYYCARVPYCSSTSCYSDWYFDLWGQGTLVTVSS VL: DIVLTQSPLSLPVTPGETASISCRSSQSILDSDDGNTYLDWYLQKPGQSPQLLIYSLSYRASGVPDRFSASGSGTDFTLKISGVEAEDVGVYYCMQRIEFPLTFGGGTKLEIK",IC50,0.14 µg/mL
